Consider one protein from patent US8465735B2, “Variant form of urate oxidase and use thereof” (Savient Pharmaceuticals, Inc., priority 2005, dated 2013).

In general, Km refers to the concentration of substrate that gives half-maximal velocity. In general, kcat refers to the number of substrate molecules converted per active site and unit of time at saturation.

Substrate in this data set: O=c1[nH]c(=O)c2[nH]c(=O)[nH]c2[nH]1
Put plainly: purified protein, by the assay type. Conditions: other: sodium borate buffer, pH 9.2, 25.0 °C.

B1: Pig uricase, native (Sigma) (Sus scrofa) (protein)
chain: MAHYRNDYKKNDEVEFVRTGYGKDMIKVLHIQRDGKYHSIKEVATSVQLTLSSKKDYLHGDNSDVIPTDTIKNTVNVLAKFKGIKSIETFAVTICEHFLSSFKHVIRAQVYVEEVPWKRFEKNGVKHVHAFIYTPTGTHFCEVEQIRNGPPVIHSGIKDLKVLKTTQSGFEGFIKDQFTTLPEVKDRCFATQVYCKWRYHQGRDVDFEATWDTVRSIVLQKFAGPYDKGEYSPSVQKTLYDIQVLTLGQVPEIEDMEISLPNIHYLNIDMSKMGLINKEEVLLPLDNPYGRITGTVKRKLTSRL
B1: the Km was determined as 5.85 µM and the turnover number (kcat) amounted to 15 s⁻¹.
